Test results as given in PMC4235346.

Tests used:
Experiment in all cases: fluorescence anisotropy
Details in all cases: 10 nM labelled DNA, 10 mM HEPES pH 7.0, 60 mM NaCl, 240 mM KCl, 25 C, anaerobic, 5 mM EDTA for apo or 1.2x (InrS) / 2.2x (ZiaR) metal …
[1] = system: ZiaR (Synechocystis PCC 6803)
[2] = system: InrS (Synechocystis PCC 6803)
[3] = system: InrS E95A (Synechocystis PCC 6803)
[4] = system: InrS E98A (Synechocystis PCC 6803)

## zia operator-promoter (zia o/p)
[1]; Zn(II), 2.2 molar excess, K1 (printed as >>)
  Kd: > 10000 nM
[1]; Zn(II), 2.2 molar excess, K2 (printed as >>)
  Kd: > 10000 nM
[1]; apo, 5 mM EDTA, K1 (first dimer)
  Kd: 22 nM
[1]; apo, 5 mM EDTA, K2 (second dimer)
  Kd: 530 nM

## TCATCAATATCCCCCCTGGGGGCATAGAATAGA (double strand) [nrsDProFA (nrsD operator-promoter)]
[2]; Cu(I), 1.2 molar excess
  Kd: 3100 nM
[2]; Cu(II), 1.2 molar excess
  Kd: 3600 nM
[2]; Ni(II), 1.2 molar excess
  Kd: 2300 nM
[2]; Zn(II), 1.2 molar excess
  Kd: 980 nM
[2]; apo, 5 mM EDTA
  Kd: 9.4 nM
[3]; Ni(II), 1.2 molar excess
  Kd: 1400 nM
[3]; apo, 5 mM EDTA
  Kd: 22 nM
[4]; Ni(II), 1.2 molar excess
  Kd: 1300 nM
[4]; apo, 5 mM EDTA
  Kd: 21 nM
